In paper PMC4215112:

B1: Bet v 1.0101 peptide I56 to D69 [modified: biotin at the N-terminus, before the additional glycine; biotin at the N-terminus, before the additional glycine] [birch] / M0418 scFv-Fcε fusion protein [human] (parent)
chain 1: QVQLVQSGAEVKKPGESLKISCKGSEYSFPNYWIAWVRQMPGKGLEWMGMIYPGDSDTRYSPSFQGQVNISADKSSRTAFLEWSSLKASDSATYFCARLGGQLWNSYYYYYYMDVWGKGTTVTVSSGGGGSGGGGSGGGGSSYELTQPPSASGTPGQRVTISCSGSSSNIGGNTVNWYQQVPGTAPRLLIYKNNQRPSGVPDRFSGSKSGTSASLAISGLRSEDEADYYCEAWDGGLRGGVFGGGTKLTVLGDYKDDDDKAAA
chain 2: GISFPEGFPFKYVKDG

Variants of: B1
Assay: ELISA
Settings: with M0418 scFv-Fcε fusion protein [human], read off a plot

screen value (10X dilution) [%]	screen value (100X dilution) [%]	Variant
95	98	chain 2 F8A
-0	38	chain 2 F10A
-0	-0	chain 2 D15A
95	98	chain 2 K11A
95	98	chain 2 P9A
-0	-0	chain 2 V13A
3	79	chain 2 Y12A
-0	-0	chain 2 K14A
43	83	chain 2 G7A
-0	9	chain 2 S3A
96	98	chain 2 P5A
5	76	chain 2 I2A
-0	37	chain 2 F4A
-0	14	chain 2 E6A
